Source: the DeepSol protein solubility set

Assay: soluble on expression in E. coli; label from the status in PepcDB or PDB records

Sequence	soluble on expression in E. coli
GSGSGSDIEAYLERIGYKKSRNKLDLETLTDILQHQIRAVPFENLNIHCGDAMDLGLEAIFDQVVRRNRGGWCLQVNHLLYWALTTIGFETTMLGGYVYSTPAKKYSTGMIHLLLQVTIDGRNYIVDAGSGRSYQMWQPLELISGKDQPQVPCVFRLTEENGFWYLDQIRREQYIPNEEFLHSDLLEDSKYRKIYSFTLKPRTIEDFESMNTYLQTSPSSVFTSKSFCSLQTPDGVHCLVGFTLTHRRFNYKDNTDLIEFKTLSEEEIEKVLKNIFNISLQRKLVPKHGDRFFTI	soluble
GSHGMSKSPEEEHPVKAFGWAARDQSGHLSPFNFSRRATGEEDVRFKVLYCGVCHSDLHSIKNDWGFSMYPLVPGHEIVGEVTEVGSKVKKVNVGDKVGVGCLVGACHSCESCANDLENYCPKMILTYASIYHDGTITYGGYSNHMVANERYIIRFPDNMPLDGGAPLLCAGITVYSPLKYFGLDEPGKHIGIVGLGGLGHVAVKFAKAFGSKVTVISTSPSKKEEALKNFGADSFLVSRDQEQMQAAAGTLDGIIDTVSAVHPLLPLFGLLKSHGKLILVGAPEKPLELPAFSLIAGRKIVAGSGIGGMKETQEMIDFAAKHNITADIEVISTDYLNTAMERLAKNDVRYRFVIDVGNTLAATKP	soluble
GSHMASDRKTEFILCVETFNEKAKKGIQMLIEKGFIDSDSNRDIASFLFLNNGRLNKKTIGLLLCDPKKTSLLKEFIDLFDFKGLRVDEAIRILLTKFRLPGESQQIERIVEAFSSKYSADQSNDKVELEDKKAGKNGSESMTEDDIIHVQPDADSVFVLSYSIIMLNTDSHNPQVKDHMTFDDYSNNLRGCYNGKDFPRWYLHKIYTSIKVKEIVMPEEH	soluble
GSHMECADVPLLTPSSKEMMSQALKATFSGFTKEQQRLGIPKDPRQWTETHVRDWVMWAVNEFSLKGVDFQKFCMSGAALCALGKECFLELAPDFVGDILWEHLEILQKEDVK	soluble
GSHMEEPSDLEELEQFAKTFKQRRIKLGFTQGDVGLAMGKLYGNDFSQTTISRFEALNLSFKNMAKLKPLLEKWLNDAENLSSDSSLSSPSALNSPGIEGLSERRKKRTSIETNIRVALEKSFLENQKPTSEEITMIADQLNMEKEVIRVWFCNRRQKEKRINPPSS	soluble
GSHMGIKNDLEIRLQKLQQQGNFKNYLEQYPTDASTAAYFLIEIYNDGNIGGRSVIDAGTGNGILACGSYLLGAESVTAFDIDPDAIETAKRNCGGVNFMVADVSEISGKYDTWIMNPPFGSVVKHSDRAFIDKAFETSMWIYSIGNAKARDFLRREFSARGDVFREEKVYITVPRIYRHHSYDRARIEAVIFGVRNHSF	soluble
GSHMKISARNVFKGTVSALKEGAVNAEVDILLGGGDKLAAVVTLESARSLQLAAGKEVVAVVKAPWVLLMTDSSGYRLSARNILTGTVKTIETGAVNAEVTLALQGGTEITSMVTKEAVAELGLKPGASASAVIKASNVILGVPA	soluble
GSHMLKEVWEELDGLDPNRFNPKTFFILHDINSDGVLDEQELEALFTKELEKVYDPKNEEDDMREMEEERLRMREHVMKNVDTNQDRLVTLEEFLASTQRKEF	soluble
GSHMMGAKMAESLRLTCLACGQANKVPSDRLAAGPKCGICGAGLITGKVAGIDPAILARAERDDLPLLVDFWAPWCGPCRQMAPQFQAAAATLAGQVRLAKIDTQAHPAVAGRHRIQGIPAFILFHKGRELARAAGARPASELVGFVRGKLGARA	soluble
GSHMNGGRPPHHPYDAKDVSEYSCRELHYTRFLTDGPCRSAKPVTELVCSGQCGPARLLPNAIGRVKWWRPNGPDFRCIPDRYRAQRVQLLCPGGAAPRSRKVRLVASCKCKR	soluble
GSHMRKTLVLLGAHGVGRRHIKNTLITKHPDRFAYPIPHTTRPPKKDEENGKNYYFVSHDQMMQDISNNEYLEYGSHEDAMYGTKLETIRKIHEQGLIAILDVEPQALKVLRTAEFAPFVVFIAAPTITPGLNEDESLQRLQKESDILQRTYAHYFDLTIINNEIDETIRHLEEAVELVC	soluble
GSHMSDGLPNKKRKRRVLFTKAQTYELERRFRQQRYLSAPEREHLTSLIRLTPTQVKIWFQNHRYKTKRAQNEKGYEGHP	soluble
GSHMSPKIVDAGTATVPHTMSTMKTADNRPASVYLKKDKPTLIKFWASWCPLCLSELGQAEKWAQDAKFSSANLITVASPGFLHEKKDGEFQKWYAGLNYPKLPVVTDNGGTIAQNLNISVYPSWALIGKDGDVQRIVKGSINEAQALALIRNPNADLGSLKHS	soluble
GSHMSSGYPGVSWNKRMCAWLAFFYDGASRRSRTFHPKHFNMDKEKARLAAVEFMKTVENNGRKKLEPGGSQFIVTD	soluble
GSHMVEMRMKKCPKCGLYTLKEICPKCGEKTVIPKPPKFSLEDRWGKYRRMLKRALKNKNKAE	soluble
GSHSMRYFYTAMSRPGRGEPRFIAVGYVDDTQFVRFDSDAASPRTEPRPPWIEQEGPEYWDRNTQIFKTNTQTYRENLRIALRYYNQSEAGSHIIQRMYGCDLGPDGRLLRGHDQSAYDGKDYIALNEDLSSWTAADTAAQITQRKWEAARVAEQLRAYLEGLCVEWLRRYLENGKETLQRADPPKTHVTHHPVSDHEATLRCWALGFYPAEITLTWQRDGEDQTQDTELVETRPAGDRTFQKWAAVVVPSGEEQRYTCHVQHEGLPKPLTLRWEPHH	soluble
GSKAPPTFKVSLMDQSVREGQDVIMSIRVQGEPKPVVSWLRNRQPVRPDQRRFAEEAEGGLCRLRILAAERGDAGFYTCKAVNEYGARQCEARLEVRGE	soluble
GSKKKVKELKVLDSKTAQNLSIFLGSFRMPYQEIKNVILEVNEAVLTESMIQNLIKQMPEPEQLKMLSELKEEYDDLAESEQFGVVMGTVPRLRPRLNAILFKLQFSEQVENIKPEIVSVTAACEELRKSENFSSLLELTLLVGNYMNAGSRNAGAFGFNISFLCKLRDTKSADQKMTLLHFLAELCENDHPEVLKFPDELAHVEKASRVSAENLQKSLDQMKKQIADVERDVQNFPAATDEKDKFVEKMTSFVKDAQEQYNKLRMMHSNMETLYKELGDYFVFDPKKLSVEEFFMDLHNFRNMFLQAVKENQKRRETEEKMRRAKLAKEKAEKERLEKQ	soluble
GSMALPKDAIPSLSECQCGICMEILVEPVTLPCNHTLCKPCFQSTVEKASLCCPFCRRRVSSWTRYHTRRNSLVNVELWTIIQKHYPRECKLRASGQESEEVADDYQPVRLLSKP	soluble
GSMLGMIRNSLFGSVETWPWQVLSTGGKEDVSYEERACEGGKFATVEVTDKPVDEALREAMPKIMKYVGGTNDKGVGMGMTVPVSFAVFPNEDGSLQKKLKVWFRIPNQFQGSPPAPSDESVKIEEREGITVYSTQFGGYAKEADYVAHATQLRTTLEGTPATYQGDVYYCAGYDPPMKPYGRRNEVWLVKA	soluble
GSMTQIHQINDIDVHRITSGQVITDLTTAVKELVDNSIDANANQIEIIFKDYGLESIECSDNGDGIDPSNYEFLALKHYTSKIAKFQDVAKVQTLGFRGEALSSLCGIAKLSVITTTSPPKADKLEYDMVGHITSKTTTSRNKGTTVLVSQLFHNLPVRQKEFSKTFKRQFTKCLTVIQGYAIINAAIKFSVWNITPKGKKNLILSTMRNSSMRKNISSVFGAGGMRGLEEVDLVLDLNPFKNRMLGKYTDDPDFLDLDYKIRVKGYISQNSFGCGRNSKDRQFIYVNKRPVEYSTLLKCCNEVYKTFNNVQFPAVFLNLELPMSLIDVNVTPDKRVILLHNERAVIDIFKTTLSDYYNRQELALPK	soluble
GSPHMDEISETNTIFKLEGVSVLSPLRKKLDLVFYLSNVDGSPVITLLKGNDRELSIYQLNKNIKMASFLPVPEKPNLIYLFMTYTSCEDNKFSEPVVMTLNKENTLNQFKNLGLLDSNVTDFEKCVEYIRKQAILTGFKISNPFVNSTLVDTDAEKINSFHLQCHRGTKEGTLYFLPDHIIFGFKKPILLFDASDIESITYSSITRLTFNASLVTKDGEKYEFSMTDQTEYAKIDDYVKRKQMKDKSMSEELKAKSKSKG	soluble
GSPPWRGRREQCLLPPEDSRLWQYLLSRSMREHPALRSLRLLTLEQPQGDSMMTCEQAQLLANLARLIQAKKALDLGTFTGYSALALALALPADGRVVTCEVDAQPPELGRPLWRQAEAEHKIDLRLKPALETLDELLAAGEAGTFDVAVVDADKENCSAYYERCLQLLRPGGILAVLRVLWRGKVLQPPKGDVAAECVRNLNERIRRDVRVYISLLPLGDGLTLAFKI	soluble
GSQSSERVVIGSKPFNEQYILANMIAILLEENGYKAEVKEGLGGTLVNYEALKRNDIQLYVEYTGTAYNVILRKQPPELWDQQYIFDEVKKGLLEADGVVVAAKLGFRDDYALAVRADWAEENGVEKISDLAEFADQLVFGSDPEFASRPDGLPQIKKVYGFEFKEVKQMEPTLMYEAIKNKQVDVIPAYTTDSRVDLFNLKILEDDKGALPPYDAIIIVNGNTAKDEKLISVLKLLEDRIDTDTMRALNYQYDVEKKDAREIAMSFLKEQGLVK	soluble
GSRPATPPVTPPSREGHVADLDRFPQDLRVYAMKAGADRQLLPFTEQAAQDARWNRRFFAPWRMTRISVPVKDVAAPFGTDGRPRGYAENLLPWDVTRWGALASGAALDLYPSQAWKGIVVSNSALREVPTLRPMFTAPTRAGQGYPFDMFQRTAVWMGTPVFVGHATADRAWLYVETAFAAGWMPAADVARVDDAFMTRYESGSLAAILRDDTSLNGADGTHLATAHIGTVLPLSGASQVGRTVLVPVRAPEGHAVVVPVLLTSGEAAQKPVPLTPGNMAELGNRMMGQPYGWGGLYEDRDCSSTLRDLFTPFGLWLPRNSASQAKAGRYVDIAKLDADDKEARIVAEGVPFMTLLWLRGHITLYLGLHEGQAAMFHNMWGIRTHRGGVEGRYVLGRAVVTSTRPGLDVPGNDNADGLLGRMQGMSILPGGAQ	soluble
GSSAKRKQEEKHLKMLRDMTGLPHNRKCFDCDQRGPTYVNMTVGSFVCTSCSGSLRGLNPPHRVKSISMTTFTQQEIEFLQKHGNEVCKQIWLGLFDDRSSAIPDFRDPQKVKEFLQEKYEKKRWYVPPEQAKVVASVHA	soluble
GSSHHHHHHGSMLNMWKVRELVDKATNVVMNYSEIESKVREATNDDPWGPSGQLMGEIAKATFMYEQFPELMNMLWSRMLKDNKKNWRRVYKSLLLLAYLIRNGSERVVTSAREHIYDLRSLENYHFVDEHGKDQGINIRQKVKELVEFAQDDDRLREERKKAKKNKDKYVGVSSD	soluble
GSSHHHHHHSSGRENLYFQGHMPKRRKSVTGEIVLITGAGHGIGRLTAYEFAKLKSKLVLWDINKHGLEETAAKCKGLGAKVHTFVVDCSNREDIYSSAKKVKAEIGDVSILVNNAGVVYTSDLFATQDPQIEKTFEVNVLAHFWTTKAFLPAMTKNNHGHIVTVASAAGHVSVPFLLAYCSSKFAAVGFHKTLTDELAALQITGVKTTCLCPNFVNTGFIKNPSTSLGPTLEPEEVVNRLMHGILTEQKMIFIPSSIAFLTTLERILPEGS	soluble
GSVPATLPQLTPTLVSLLEVIEPEVLYAGYDSSVPDSTWRIMTTLNMLGGRQVIAAVKWAKAIPGFRNLHLDDQMTLLQYSWMYLMAFALGWRSYRQSSANLLCFAPDLIINEQRMTLPGMYDQCKHMLYVSSELHRLQVSYEEYLCMKTLLLLSSVPKDGLKSQELFDEIRMTYIKELGKAIVKREGNSSQNWQRFYQLTKLLDSMHEVVENLLNYCFQTFLDKTMSIEFPEMLAEIITNQIPKYSNGNIKKLLFHQK	soluble
GSVPVILEVAGIGKYAISIGGERQEGLTEEMVTQLSRQEFDKDNNTLFLVGGAKEVPYEEVIKALNLLHLAGIK	soluble
